Common to all, as to test: Kd (EC50 corrected by depletion factor)
In one data set the target is T1, ZCCHC8 (UniProt Q6NZY4).
T1 sequence: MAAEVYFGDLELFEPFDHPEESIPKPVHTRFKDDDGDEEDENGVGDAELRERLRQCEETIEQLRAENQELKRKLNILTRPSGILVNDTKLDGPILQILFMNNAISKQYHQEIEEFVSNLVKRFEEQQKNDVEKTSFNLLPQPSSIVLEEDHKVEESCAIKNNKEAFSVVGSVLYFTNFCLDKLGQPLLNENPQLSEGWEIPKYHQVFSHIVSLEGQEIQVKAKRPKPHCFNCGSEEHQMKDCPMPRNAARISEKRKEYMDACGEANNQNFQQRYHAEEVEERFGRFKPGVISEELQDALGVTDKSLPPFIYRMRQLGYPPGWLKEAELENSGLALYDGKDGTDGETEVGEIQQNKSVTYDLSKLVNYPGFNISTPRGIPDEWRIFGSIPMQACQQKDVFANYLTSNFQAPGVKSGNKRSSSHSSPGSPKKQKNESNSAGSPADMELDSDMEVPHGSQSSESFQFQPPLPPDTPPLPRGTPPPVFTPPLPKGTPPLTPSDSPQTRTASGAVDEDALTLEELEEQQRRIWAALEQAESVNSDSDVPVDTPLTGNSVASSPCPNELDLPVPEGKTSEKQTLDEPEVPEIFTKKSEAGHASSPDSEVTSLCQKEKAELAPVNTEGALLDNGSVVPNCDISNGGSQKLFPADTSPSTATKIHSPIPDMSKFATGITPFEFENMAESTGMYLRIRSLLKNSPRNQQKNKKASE
How it is done:
(§1)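 Competition-binding assay: HEK293-FT cell lysate (2.5 mg protein) pre-incubated 1 h at 4°C with free motif-containing RNA oligos (0 to 30 µM, 12 doses), then pulled down with the same 5'-amino-C6 RNA oligos immobilised on NHS-Sepharose beads (30 min, 4°C). Bound proteins were quantified by label-free LC-MS/MS and normalised to the water control. EC50 came from a four-parameter log-logistic fit; Kd = EC50 x depletion factor. Random/reversed control probes are dropped.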

For a further data set, the target named is T2, SKIV2L2 (UniProt P42285).
T2 sequence: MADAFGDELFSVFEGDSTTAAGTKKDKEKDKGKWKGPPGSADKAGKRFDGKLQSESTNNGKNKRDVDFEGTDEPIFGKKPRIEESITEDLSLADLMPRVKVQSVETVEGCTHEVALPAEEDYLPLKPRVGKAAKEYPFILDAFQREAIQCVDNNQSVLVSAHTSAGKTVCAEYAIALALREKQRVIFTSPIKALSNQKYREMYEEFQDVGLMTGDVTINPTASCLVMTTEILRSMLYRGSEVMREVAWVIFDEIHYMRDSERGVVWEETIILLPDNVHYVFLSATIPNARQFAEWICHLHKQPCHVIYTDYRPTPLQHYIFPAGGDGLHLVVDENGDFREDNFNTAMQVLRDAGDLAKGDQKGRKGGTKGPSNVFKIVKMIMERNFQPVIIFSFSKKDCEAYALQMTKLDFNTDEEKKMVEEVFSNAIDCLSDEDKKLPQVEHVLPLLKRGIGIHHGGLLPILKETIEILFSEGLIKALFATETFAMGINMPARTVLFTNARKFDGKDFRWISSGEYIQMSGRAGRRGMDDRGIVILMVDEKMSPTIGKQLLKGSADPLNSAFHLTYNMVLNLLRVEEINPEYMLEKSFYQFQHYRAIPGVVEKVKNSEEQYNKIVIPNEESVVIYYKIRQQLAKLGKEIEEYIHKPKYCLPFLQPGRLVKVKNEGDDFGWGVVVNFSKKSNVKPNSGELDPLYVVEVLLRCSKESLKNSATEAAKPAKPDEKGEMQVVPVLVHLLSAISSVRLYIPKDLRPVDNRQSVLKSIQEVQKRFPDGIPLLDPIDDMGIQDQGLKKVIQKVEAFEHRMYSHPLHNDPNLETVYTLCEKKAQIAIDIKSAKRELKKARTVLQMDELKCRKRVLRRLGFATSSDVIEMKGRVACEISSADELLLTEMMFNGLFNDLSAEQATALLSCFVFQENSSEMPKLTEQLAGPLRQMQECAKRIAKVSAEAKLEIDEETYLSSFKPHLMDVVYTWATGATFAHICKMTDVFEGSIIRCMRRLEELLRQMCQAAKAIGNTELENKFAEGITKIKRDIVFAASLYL
Here is the method:
as §1

Another data set deals with T3, DHX36 (UniProt Q9H2U1).
T3 sequence: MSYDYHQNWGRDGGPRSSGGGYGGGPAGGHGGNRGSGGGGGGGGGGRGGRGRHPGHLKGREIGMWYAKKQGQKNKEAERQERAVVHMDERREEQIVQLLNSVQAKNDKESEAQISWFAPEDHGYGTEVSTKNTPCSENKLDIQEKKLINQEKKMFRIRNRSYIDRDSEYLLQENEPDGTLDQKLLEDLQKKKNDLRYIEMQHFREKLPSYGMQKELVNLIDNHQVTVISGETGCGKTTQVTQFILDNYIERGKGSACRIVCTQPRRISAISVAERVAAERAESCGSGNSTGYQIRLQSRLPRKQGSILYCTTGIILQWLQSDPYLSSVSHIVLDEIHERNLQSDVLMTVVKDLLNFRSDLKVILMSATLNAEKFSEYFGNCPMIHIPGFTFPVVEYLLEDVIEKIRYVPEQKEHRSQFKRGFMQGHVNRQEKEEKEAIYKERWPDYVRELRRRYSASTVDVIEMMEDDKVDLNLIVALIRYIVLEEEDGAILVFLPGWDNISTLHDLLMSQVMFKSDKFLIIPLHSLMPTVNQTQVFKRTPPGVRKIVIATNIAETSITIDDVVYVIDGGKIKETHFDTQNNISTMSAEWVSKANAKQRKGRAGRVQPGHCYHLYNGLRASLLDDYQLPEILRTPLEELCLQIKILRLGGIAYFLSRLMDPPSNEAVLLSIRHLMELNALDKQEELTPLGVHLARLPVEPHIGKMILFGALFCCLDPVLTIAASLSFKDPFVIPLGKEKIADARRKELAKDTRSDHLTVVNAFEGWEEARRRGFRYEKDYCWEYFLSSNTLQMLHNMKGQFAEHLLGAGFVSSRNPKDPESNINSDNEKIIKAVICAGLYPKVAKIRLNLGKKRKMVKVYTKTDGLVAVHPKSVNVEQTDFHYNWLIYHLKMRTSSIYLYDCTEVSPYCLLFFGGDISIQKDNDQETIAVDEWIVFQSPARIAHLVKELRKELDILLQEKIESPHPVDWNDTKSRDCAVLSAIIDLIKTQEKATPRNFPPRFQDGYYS
Here is the method: as §1

The results in this text go back to the supplement of paper PMC6379048.

The term Kd denotes the concentration at which binding is half-saturated. Low readings indicate tighter binding, high ones weaker binding.

Consider AAUAAA, for which the Kd in the data set with ZCCHC8 is 190 nM; in the data set with SKIV2L2, 393 nM; in the data set with DHX36, 573 nM.
Taken in the same sequence, the figures for CUGUCCU were 1740 nM, 2450 nM and 1850 nM.
The like results for UAUUUAU were, in that order, 200 nM, 202 nM and 632 nM.
